In test [1] the target is 405C full-length gp160 Env on SHIV (HIV-1 clade C, isolate 405C). The test can be described thus: cell-based or functional assay.
The target of test [2] is 459C full-length gp160 Env on SHIV (HIV-1 clade C, isolate 459C). The test can be described thus: cell-based or functional assay.
Test [3] deals with 405C gp140 trimer (405C gp140-foldon, gp140Fd) (HIV-1 clade C, isolate 405C). The test can be described thus: SPR; 4,500 RU IgG captured on protein A, Env flowed over. In general terms: In SPR one partner is held on a chip, and binding of the other changes the refractive index at the surface.
In test [4] the target is 939C gp140 trimer (939C gp140-foldon, gp140Fd) (HIV-1 clade C, isolate 939C). The description is as above.
The target of test [5] is 459C gp140 trimer (459C gp140-foldon, gp140Fd) (HIV-1 clade C, isolate 459C). The test can be described thus: SPR; 3,500 RU IgG captured on protein A, Env flowed over; 1:1 model.
The target of test [6] is 405C gp140 trimer (405C gp140-foldon, gp140Fd) (HIV-1 clade C, isolate 405C). The test is described as above.
The target of test [7] is 939C gp140 trimer (939C gp140-foldon, gp140Fd) (HIV-1 clade C, isolate 939C). Described as above.
Test [8] has as its target 405C gp140 trimer (405C gp140-foldon, gp140Fd) (HIV-1 clade C, isolate 405C). The experiment in a line: SPR; CD4 coupled to CM5 chip, Env flowed over; 1:1 model; 405C gp140 trimer as analyte.
Test [9] addresses 405C gp120 monomer (HIV-1 clade C, isolate 405C). The test can be described thus: SPR; CD4 coupled to CM5 chip, Env flowed over; 1:1 model; 405C gp120 monomer as analyte.
Test [10] addresses 939C gp120 monomer (HIV-1 clade C, isolate 939C). The test can be described thus: SPR; CD4 coupled to CM5 chip, Env flowed over; 1:1 model.
In test [11] the target is 459C gp140 trimer (459C gp140-foldon, gp140Fd) (HIV-1 clade C, isolate 459C). The description is as above.
Test [12] concerns the target 405C gp140 trimer (405C gp140-foldon, gp140Fd) (HIV-1 clade C, isolate 405C). The test is described as above.
Test [13] addresses 939C gp140 trimer (939C gp140-foldon, gp140Fd) (HIV-1 clade C, isolate 939C). The description is as above.
Test [14] has as its target 459C gp120 monomer (HIV-1 clade C, isolate 459C). The description is as above.
Test [15] shares this target. The test can be described thus: SPR; IgG captured on protein A, Env flowed over; 1:1 model (monomer rates are rough estimates).
Test [16] deals with 405C gp120 monomer (HIV-1 clade C, isolate 405C). The test is described as above.
Test [17] has as its target 459C gp140 trimer (459C gp140-foldon, gp140Fd) (HIV-1 clade C, isolate 459C). The experiment in a line: SPR; IgG captured on protein A, Env flowed over; 1:1 model.
Test [18] concerns the target 405C gp140 trimer (405C gp140-foldon, gp140Fd) (HIV-1 clade C, isolate 405C). Described as above.
Test [19] has as its target 939C gp140 trimer (939C gp140-foldon, gp140Fd) (HIV-1 clade C, isolate 939C). The test is described as above.
The target of test [20] is 405C gp140 trimer (405C gp140-foldon, gp140Fd) (HIV-1 clade C, isolate 405C). The experiment in a line: SPR; IgG captured on protein A, trimer flowed over.
The target is the same in test [21]. The test can be described thus: SPR (Example 8); IgG captured on protein A, trimer flowed over.
For test [22], the target named is 939C gp120 monomer (HIV-1 clade C, isolate 939C). The experiment in a line: SPR; IgG captured on protein A, Env flowed over; 1:1 model.
For test [23], the target named is 459C gp120 monomer (HIV-1 clade C, isolate 459C). The test is described as above.
The target in test [24] is 405C gp120 monomer (HIV-1 clade C, isolate 405C). Described as above.
Test [25] concerns the target 459C gp140 trimer (459C gp140-foldon, gp140Fd) (HIV-1 clade C, isolate 459C). The experiment in a line: SPR; 17b IgG captured on protein A, trimer at 1000 nM with against without bound CD4.
For test [26], the target named is 405C gp140 trimer (405C gp140-foldon, gp140Fd) (HIV-1 clade C, isolate 405C). Described as above.
The target in test [27] is 939C gp140 trimer (939C gp140-foldon, gp140Fd) (HIV-1 clade C, isolate 939C). The test is described as above.

A value given as a limit tells only on which side of the number the result lay.

For “sCD4 (soluble CD4) (from UniProt P01730 26-208) (receptor)”, the IC50 Titers (TZM.bl cells, ug/ml) in test [1] was over 50 µg/mL; in test [2] it was 48.7 µg/mL.
Broadly, the Kd is a measure of binding affinity in units of concentration. For orientation: koff means the rate constant with which the complex falls apart. As a reminder, the kon is the second-order rate constant of association. Consider PG16 IgG (antibody), for which the IC50 Titers (TZM.bl cells, ug/ml) in test [1] turned out to be 2.05 µg/mL. This substance also displayed an IC50 Titers (TZM.bl cells, ug/ml) in [2] of 6.7 µg/mL. In test [3], this substance came in with a Kd of 1450 nM and a koff of 0.00151 s⁻¹. In addition, in test [4], the Kd was found to be 1260 nM, the koff amounted to 0.00286 s⁻¹ and the kon stood at 2410 M⁻¹ s⁻¹.
As to PG9 IgG (antibody), the IC50 Titers (TZM.bl cells, ug/ml) was 17.4 µg/mL in test [1] and over 50 µg/mL in [2]. Besides, the Kd in test [5] worked out at 448 nM; in test [6], 335 nM; in test [7], 157 nM. For the same substance, the figures for the koff in test [5], in test [6] and in test [7] were 0.0032 s⁻¹, 0.000662 s⁻¹ and 0.00126 s⁻¹, respectively. The kon in test [5] came out at 7150 M⁻¹ s⁻¹; in test [6], 1970 M⁻¹ s⁻¹; in [7] it was 8010 M⁻¹ s⁻¹.
For 2G12 IgG (antibody), the IC50 Titers (TZM.bl cells, ug/ml) in test [1] and in test [2] was over 50 µg/mL each time.
As to “Soluble two-domain CD4 (from UniProt P01730 26-208) (receptor)”, the Kd was 12.3 nM in test [8]; 15.9 nM in test [10]; 4.17 nM in test [11]; 12.5 nM in test [13]; 26.9 nM in test [14]. Further, the koff in test [9] amounted to 0.000327 s⁻¹; in test [10], 0.00031 s⁻¹; in test [11], 9.89e-05 s⁻¹; in [12] it was 0.000196 s⁻¹; in test [13] it was 0.000206 s⁻¹; in [14], 0.00049 s⁻¹. In addition, the kon turned out to be 5560 M⁻¹ s⁻¹ in [9]; 19500 M⁻¹ s⁻¹ in [10]; 23700 M⁻¹ s⁻¹ in [11]; 15400 M⁻¹ s⁻¹ in [12]; 16500 M⁻¹ s⁻¹ in [13]; 18200 M⁻¹ s⁻¹ in test [14].
On to PGT126 IgG (antibody), for which the Kd was 41.3 nM in test [15]; 38.3 nM in test [16]; 8.3 nM in [17]; 9.83 nM in test [18]; 6.63 nM in [19]. Moreover, the koff in [15] is 0.000592 s⁻¹; in [16], 0.0012 s⁻¹; in test [17] it was 0.000243 s⁻¹; in test [18] it was 0.000282 s⁻¹; in test [19] it was 0.000232 s⁻¹. In addition, the kon in test [15] was 14800 M⁻¹ s⁻¹; in [16], 31400 M⁻¹ s⁻¹; in test [17] it was 29500 M⁻¹ s⁻¹; in [18] it was 28700 M⁻¹ s⁻¹; in test [19] it was 35000 M⁻¹ s⁻¹.
With b12 IgG (antibody), the IC50 Titers (TZM.bl cells, ug/ml) in [1] and in test [2] was over 50 µg/mL in each case.
For the substance 3BNC117 IgG (antibody), the IC50 Titers (TZM.bl cells, ug/ml) came to 4.94 µg/mL in test [1] and 5.97 µg/mL in test [2]. Further, the fold lower magnitude of binding than 459C and 939C trimers in test [20] is 5 fold. Besides, in test [21], the fold lower magnitude of binding than Env 459C and 939C trimers was found to be 5 fold. The Kd was determined as 172 nM in test [22]; 1.24 nM in test [17]; 78.3 nM in test [18]; 27.1 nM in test [19]; 95.1 nM in test [23]; 85.8 nM in [24]. The koff in [22] stood at 0.000961 s⁻¹; in [17], 1.04e-05 s⁻¹; in test [18], 0.000322 s⁻¹; in test [19], 0.000224 s⁻¹; in test [23] it was 0.0005 s⁻¹; in [24], 0.00042 s⁻¹. In addition, the kon in test [22] is 6450 M⁻¹ s⁻¹; in test [17], 8500 M⁻¹ s⁻¹; in test [18], 4110 M⁻¹ s⁻¹; in [19], 8330 M⁻¹ s⁻¹; in [23], 6130 M⁻¹ s⁻¹; in [24] it was 4900 M⁻¹ s⁻¹.
For the substance PGT128 IgG (antibody), the IC50 Titers (TZM.bl cells, ug/ml) is 45.9 µg/mL in test [1] and 0.65 µg/mL in test [2].
Regarding 4E10 IgG (antibody), the figures for the IC50 Titers (TZM.bl cells, ug/ml) in test [1] and in [2] were 18.2 µg/mL and over 50 µg/mL, respectively.
On to VRC01 IgG (antibody), for which the IC50 Titers (TZM.bl cells, ug/ml) in test [1] worked out at 13.3 µg/mL; in [2], 11.9 µg/mL. Further, the fold lower magnitude of binding than 459C and 939C trimers in test [20] came to 5 fold. This substance also returned a fold lower magnitude of binding than Env 459C and 939C trimers in test [21] of 5 fold. Also, the Kd in test [22] amounted to 57.3 nM; in [17], 7.5 nM; in test [18], 7.42 nM; in [19], 3.52 nM; in test [23] it was 328 nM; in [24] it was 35.3 nM. The koff in [22] is 0.000249 s⁻¹; in [17], 4.75e-05 s⁻¹; in [18], 4.52e-05 s⁻¹; in [19], 1.55e-05 s⁻¹; in test [23], 0.00109 s⁻¹; in [24] it was 0.000278 s⁻¹. Also, the kon in test [22] was found to be 4350 M⁻¹ s⁻¹; in test [17], 6990 M⁻¹ s⁻¹; in [18], 6090 M⁻¹ s⁻¹; in test [19] it was 4400 M⁻¹ s⁻¹; in [23], 3320 M⁻¹ s⁻¹; in [24], 7870 M⁻¹ s⁻¹.
With PGT121 IgG (antibody), the Kd is 123 nM in test [15]; 64.2 nM in test [16]; 5.56 nM in test [17]; 10.6 nM in test [18]; 25.7 nM in test [19]. Besides, the koff was 0.000824 s⁻¹ in test [15]; 0.000492 s⁻¹ in [16]; 8.73e-05 s⁻¹ in [17]; 0.000104 s⁻¹ in test [18]; 0.00043 s⁻¹ in test [19]. Besides, the kon is 6720 M⁻¹ s⁻¹ in [15]; 7670 M⁻¹ s⁻¹ in test [16]; 15700 M⁻¹ s⁻¹ in [17]; 9780 M⁻¹ s⁻¹ in test [18]; 16700 M⁻¹ s⁻¹ in test [19].
Take 17b IgG (antibody): the fold increase in magnitude of binding when the trimer is bound to CD4 in [25], in test [26] and in test [27] was 4 fold throughout.
2F5 IgG (antibody): the IC50 Titers (TZM.bl cells, ug/ml) in [1] and in test [2] was over 50 µg/mL throughout.

The values above are taken from patent US20160243215A1.
